From patent US20210371867A1 (SYSMEX, published 2021)

T1: human CD80/B7-1 protein (His tag) (human, UniProt P33681 35-242)
T1 construct: Recombinant His-tagged protein used as the antigen solution; also called antigen
T1 sequence (looked up): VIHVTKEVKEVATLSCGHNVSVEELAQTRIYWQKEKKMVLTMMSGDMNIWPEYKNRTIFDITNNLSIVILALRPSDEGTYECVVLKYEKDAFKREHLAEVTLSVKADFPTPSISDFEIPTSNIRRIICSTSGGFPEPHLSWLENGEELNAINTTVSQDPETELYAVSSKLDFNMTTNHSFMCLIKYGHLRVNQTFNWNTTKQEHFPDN


target: T1, human CD80/B7-1 protein (His tag); assay: sandwich chemiluminescence ELISA; capture rabbit anti-CD80 IgG on plate, antigen 0.005-20 ng/mL, binder as detection antibody at 200 ng/mL
Experimental: Rabbit anti-CD80 antibody (IgG) was diluted with PBS to 1 μg/mL. The resulting antibody solution was added to a 96-well black plate at 100 μL/well and allowed to stand overnight at 4° C. to immobilize the antibody in the wells. After removing the antibody solution from the plate, Buffer I′ (100 mM HEPES, 1% BSA, 0.05% ProClin (trademark), 1 mM MgCl₂, 0.1 mM ZnCl₂, pH 8.0) was added at 300 μL/well and allowed to stand overnight at 4° C. for blocking. After removing the solution from the plate, a human CD80/B7-1 protein (His tag) solution (0.005, 0.020, 0.078, 0.313, 1.25, 5.0 or 20 ng/mL) was added as an antigen solution at 100 μL/well. The plate was shaken at room temperature at 500 rpm for 1 hour to perform an antigen-antibody reaction. The plate was washed three times with a HISCL washing solution (Sysmex Corporation), and then each ALP fusion antibody (200 ng/mL) of Example 1 diluted with Buffer I′ was added at 100 μL/well. The plate was shaken at room temperature at 500 rpm for 1 hour to perform an antigen-antibody reaction. After washing the plate with a HISCL washing solution three times, a HISCL R5 reagent (Sysmex Corporation) as a solution of a chemiluminescent substrate of ALP was added at 100 μL/well, and luminescence intensity was immediately measured with FLUOstar OPTIMA (BMG LABTECH).

Row | Binder | binding result
1 | ALP fusion antibody of Example 1 (GS1 linker): Fab of rabbit anti-CD80 antibody, Fd-GS1-BIAPII (Fab, Fab-enzyme fusion; two ALP fusion Fab molecules form a complex by dimer formation of the ALP subunits; also called Fab-GS1-BIAPII; ALP fusion antibody (GS1 linker)) heavy: QSVEESGGRLVTPGTPLTLTCTASGFSLSNNAVSWVRQAPGEGLEWIGTISSNDNTYYATWAKGRFTISKTSTTVDLKITSPTTEDTATYFCAIYYYGYGYVFNLWGPGTLVTVSSGQPKAPSVFPLAPCCGDTPSSTVTLGCLVKGYLPEPVTVTWNSGTLTNGVRTFPSVRQSSGLYSLSSVVSVTSSSQPVTCNVAHPATNTKVDKTVAPSTCSKPTGGGGSLIPAEEENPAFWNRQAAQALDVAKKLQPIQTAAKNVILFLGDGMGVPTVTATRILKGQMNGKLGPETPLAMDQFPYVALSKTYNVDRQVPDSAGTATAYLCGVKGNYRTIGVSAAARYNQCNTTRGNEVTSVINRAKKAGKAVGVVTTTRVQHASPAGAYAHTVNRNWYSDADLPADAQKNGCQDIAAQLVYNMDIDVILGGGRMYMFPEGTPDPEYPDDASVNGVRKDKQNLVQEWQAKHQGAQYVWNRTALLQAADDSSVTHLMGLFEPADMKYNVQQDHTKDPTLAEMTEAALQVLSRNPRGFYLFVEGGRIDHGHHDGKAYMALTEAIMFDNAIAKANELTSELDTLILVTADHSHVFSFGGYTLRGTSIFGLAPGKALDSKSYTSILYGNGPGYALGGGSRPDVNGSTSEEPSYRQQAAVPLASETHGGEDVAVFARGPQAHLVHGVQEETFVAHIMAFAGCVEPYTDCNLPAPA light: ELVMTQTPASVSEPVGGTVTINCQASEDIYSSLAWYQQKPGQRPKLLMYYASTLASGVPSRFKGSGSGTEFTLTISDLECADAATYYCQSYYLSSSSRYGNAFGGGTEVVVKGDPVAPTVLIFPPAADQVATGTVTIVCVANKYFPDVTVTWEVDGTTQTTGIENSKTPQNSADCTYNLSSTLTLTSTQYNSHKEYTCKVTQGTTSVVQSFIG | binds
2 | ALP fusion antibody of Example 1 (GS3 linker): Fab of rabbit anti-CD80 antibody, Fd-GS3-BIAPII (Fab, Fab-enzyme fusion, dimer through the ALP subunits) heavy: QSVEESGGRLVTPGTPLTLTCTASGFSLSNNAVSWVRQAPGEGLEWIGTISSNDNTYYATWAKGRFTISKTSTTVDLKITSPTTEDTATYFCAIYYYGYGYVFNLWGPGTLVTVSSGQPKAPSVFPLAPCCGDTPSSTVTLGCLVKGYLPEPVTVTWNSGTLTNGVRTFPSVRQSSGLYSLSSVVSVTSSSQPVTCNVAHPATNTKVDKTVAPSTCSKPTGGGGSGGGGSGGGGSLIPAEEENPAFWNRQAAQALDVAKKLQPIQTAAKNVILFLGDGMGVPTVTATRILKGQMNGKLGPETPLAMDQFPYVALSKTYNVDRQVPDSAGTATAYLCGVKGNYRTIGVSAAARYNQCNTTRGNEVTSVINRAKKAGKAVGVVTTTRVQHASPAGAYAHTVNRNWYSDADLPADAQKNGCQDIAAQLVYNMDIDVILGGGRMYMFPEGTPDPEYPDDASVNGVRKDKQNLVQEWQAKHQGAQYVWNRTALLQAADDSSVTHLMGLFEPADMKYNVQQDHTKDPTLAEMTEAALQVLSRNPRGFYLFVEGGRIDHGHHDGKAYMALTEAIMFDNAIAKANELTSELDTLILVTADHSHVFSFGGYTLRGTSIFGLAPGKALDSKSYTSILYGNGPGYALGGGSRPDVNGSTSEEPSYRQQAAVPLASETHGGEDVAVFARGPQAHLVHGVQEETFVAHIMAFAGCVEPYTDCNLPAPA light: ELVMTQTPASVSEPVGGTVTINCQASEDIYSSLAWYQQKPGQRPKLLMYYASTLASGVPSRFKGSGSGTEFTLTISDLECADAATYYCQSYYLSSSSRYGNAFGGGTEVVVKGDPVAPTVLIFPPAADQVATGTVTIVCVANKYFPDVTVTWEVDGTTQTTGIENSKTPQNSADCTYNLSSTLTLTSTQYNSHKEYTCKVTQGTTSVVQSFIG | binds
3 | ALP fusion antibody of Example 1 (GS2 linker): Fab of rabbit anti-CD80 antibody, Fd-GS2-BIAPII (Fab, Fab-enzyme fusion, dimer through the ALP subunits) heavy: QSVEESGGRLVTPGTPLTLTCTASGFSLSNNAVSWVRQAPGEGLEWIGTISSNDNTYYATWAKGRFTISKTSTTVDLKITSPTTEDTATYFCAIYYYGYGYVFNLWGPGTLVTVSSGQPKAPSVFPLAPCCGDTPSSTVTLGCLVKGYLPEPVTVTWNSGTLTNGVRTFPSVRQSSGLYSLSSVVSVTSSSQPVTCNVAHPATNTKVDKTVAPSTCSKPTGGGGSGGGGSLIPAEEENPAFWNRQAAQALDVAKKLQPIQTAAKNVILFLGDGMGVPTVTATRILKGQMNGKLGPETPLAMDQFPYVALSKTYNVDRQVPDSAGTATAYLCGVKGNYRTIGVSAAARYNQCNTTRGNEVTSVINRAKKAGKAVGVVTTTRVQHASPAGAYAHTVNRNWYSDADLPADAQKNGCQDIAAQLVYNMDIDVILGGGRMYMFPEGTPDPEYPDDASVNGVRKDKQNLVQEWQAKHQGAQYVWNRTALLQAADDSSVTHLMGLFEPADMKYNVQQDHTKDPTLAEMTEAALQVLSRNPRGFYLFVEGGRIDHGHHDGKAYMALTEAIMFDNAIAKANELTSELDTLILVTADHSHVFSFGGYTLRGTSIFGLAPGKALDSKSYTSILYGNGPGYALGGGSRPDVNGSTSEEPSYRQQAAVPLASETHGGEDVAVFARGPQAHLVHGVQEETFVAHIMAFAGCVEPYTDCNLPAPA light: ELVMTQTPASVSEPVGGTVTINCQASEDIYSSLAWYQQKPGQRPKLLMYYASTLASGVPSRFKGSGSGTEFTLTISDLECADAATYYCQSYYLSSSSRYGNAFGGGTEVVVKGDPVAPTVLIFPPAADQVATGTVTIVCVANKYFPDVTVTWEVDGTTQTTGIENSKTPQNSADCTYNLSSTLTLTSTQYNSHKEYTCKVTQGTTSVVQSFIG | binds

Next, values leading:

Row | binding result | Binder
4 | binds | ALP fusion antibody of Example 1 (EK2 linker): Fab of rabbit anti-CD80 antibody, Fd-EK2-BIAPII (Fab, Fab-enzyme fusion, dimer through the ALP subunits) heavy: QSVEESGGRLVTPGTPLTLTCTASGFSLSNNAVSWVRQAPGEGLEWIGTISSNDNTYYATWAKGRFTISKTSTTVDLKITSPTTEDTATYFCAIYYYGYGYVFNLWGPGTLVTVSSGQPKAPSVFPLAPCCGDTPSSTVTLGCLVKGYLPEPVTVTWNSGTLTNGVRTFPSVRQSSGLYSLSSVVSVTSSSQPVTCNVAHPATNTKVDKTVAPSTCSKPTEAAAKEAAAKLIPAEEENPAFWNRQAAQALDVAKKLQPIQTAAKNVILFLGDGMGVPTVTATRILKGQMNGKLGPETPLAMDQFPYVALSKTYNVDRQVPDSAGTATAYLCGVKGNYRTIGVSAAARYNQCNTTRGNEVTSVINRAKKAGKAVGVVTTTRVQHASPAGAYAHTVNRNWYSDADLPADAQKNGCQDIAAQLVYNMDIDVILGGGRMYMFPEGTPDPEYPDDASVNGVRKDKQNLVQEWQAKHQGAQYVWNRTALLQAADDSSVTHLMGLFEPADMKYNVQQDHTKDPTLAEMTEAALQVLSRNPRGFYLFVEGGRIDHGHHDGKAYMALTEAIMFDNAIAKANELTSELDTLILVTADHSHVFSFGGYTLRGTSIFGLAPGKALDSKSYTSILYGNGPGYALGGGSRPDVNGSTSEEPSYRQQAAVPLASETHGGEDVAVFARGPQAHLVHGVQEETFVAHIMAFAGCVEPYTDCNLPAPA light: ELVMTQTPASVSEPVGGTVTINCQASEDIYSSLAWYQQKPGQRPKLLMYYASTLASGVPSRFKGSGSGTEFTLTISDLECADAATYYCQSYYLSSSSRYGNAFGGGTEVVVKGDPVAPTVLIFPPAADQVATGTVTIVCVANKYFPDVTVTWEVDGTTQTTGIENSKTPQNSADCTYNLSSTLTLTSTQYNSHKEYTCKVTQGTTSVVQSFIG
5 | binds | ALP fusion antibody of Example 1 (EK1 linker): Fab of rabbit anti-CD80 antibody, Fd-EK1-BIAPII (Fab, Fab-enzyme fusion, dimer through the ALP subunits) heavy: QSVEESGGRLVTPGTPLTLTCTASGFSLSNNAVSWVRQAPGEGLEWIGTISSNDNTYYATWAKGRFTISKTSTTVDLKITSPTTEDTATYFCAIYYYGYGYVFNLWGPGTLVTVSSGQPKAPSVFPLAPCCGDTPSSTVTLGCLVKGYLPEPVTVTWNSGTLTNGVRTFPSVRQSSGLYSLSSVVSVTSSSQPVTCNVAHPATNTKVDKTVAPSTCSKPTEAAAKLIPAEEENPAFWNRQAAQALDVAKKLQPIQTAAKNVILFLGDGMGVPTVTATRILKGQMNGKLGPETPLAMDQFPYVALSKTYNVDRQVPDSAGTATAYLCGVKGNYRTIGVSAAARYNQCNTTRGNEVTSVINRAKKAGKAVGVVTTTRVQHASPAGAYAHTVNRNWYSDADLPADAQKNGCQDIAAQLVYNMDIDVILGGGRMYMFPEGTPDPEYPDDASVNGVRKDKQNLVQEWQAKHQGAQYVWNRTALLQAADDSSVTHLMGLFEPADMKYNVQQDHTKDPTLAEMTEAALQVLSRNPRGFYLFVEGGRIDHGHHDGKAYMALTEAIMFDNAIAKANELTSELDTLILVTADHSHVFSFGGYTLRGTSIFGLAPGKALDSKSYTSILYGNGPGYALGGGSRPDVNGSTSEEPSYRQQAAVPLASETHGGEDVAVFARGPQAHLVHGVQEETFVAHIMAFAGCVEPYTDCNLPAPA light: ELVMTQTPASVSEPVGGTVTINCQASEDIYSSLAWYQQKPGQRPKLLMYYASTLASGVPSRFKGSGSGTEFTLTISDLECADAATYYCQSYYLSSSSRYGNAFGGGTEVVVKGDPVAPTVLIFPPAADQVATGTVTIVCVANKYFPDVTVTWEVDGTTQTTGIENSKTPQNSADCTYNLSSTLTLTSTQYNSHKEYTCKVTQGTTSVVQSFIG
